This note sets out measurements from publication PMC9408938.

The target of experiment [1] is T1, Human interferon-gamma receptor chain-1 (human (endogenous in WISH)) (UniProt P15260).
T1 sequence: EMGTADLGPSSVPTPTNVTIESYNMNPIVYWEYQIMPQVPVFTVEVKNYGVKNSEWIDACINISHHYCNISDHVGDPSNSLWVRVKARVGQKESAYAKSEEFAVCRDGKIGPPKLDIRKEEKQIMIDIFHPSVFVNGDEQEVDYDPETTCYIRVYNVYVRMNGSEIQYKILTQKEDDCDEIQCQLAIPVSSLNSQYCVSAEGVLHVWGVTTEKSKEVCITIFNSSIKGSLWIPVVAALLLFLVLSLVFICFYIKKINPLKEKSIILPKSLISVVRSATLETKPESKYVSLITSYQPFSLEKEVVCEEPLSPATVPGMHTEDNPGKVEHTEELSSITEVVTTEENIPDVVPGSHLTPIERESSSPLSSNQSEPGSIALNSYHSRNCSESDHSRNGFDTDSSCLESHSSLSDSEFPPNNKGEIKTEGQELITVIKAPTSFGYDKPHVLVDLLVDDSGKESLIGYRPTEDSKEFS

The target in experiment [2] is T1, Human interferon-gamma receptor chain-1 (human (endogenous in WISH)). The source holds these as a separate data set.

Sequence of Human interferon-gamma (P01579 24-161): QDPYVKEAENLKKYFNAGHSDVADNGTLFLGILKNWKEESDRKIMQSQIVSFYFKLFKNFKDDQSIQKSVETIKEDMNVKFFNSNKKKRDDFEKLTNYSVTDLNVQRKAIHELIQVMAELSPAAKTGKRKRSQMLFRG

As for “Human interferon-gamma (from UniProt P01579 24-161) (ligand)”, in experiment [1], the ratio of pSTAT1 to total STAT1 (Western blot, normalised to β-actin) in hIFN γ-stimulated WISH cells cultured under standard conditions (control) (ratio pSTAT1/STAT1) came out at 3.14 and the ratio of pSTAT1 to total STAT1 (Western blot, normalised to β-actin) in hIFN γ-stimulated WISH cells cultured with 30 mM NaClO3 (reduced HS sulfation) (ratio pSTAT1/STAT1) stood at 1.7. In experiment [2], this substance registered an antiproliferative activity of hIFN γ (15 ng/mL) by modified kynurenine bioassay, optical density at 490 nm, WISH cells cultured with 30 mM NaClO3 of 0.051 OD 490 nm; an antiproliferative activity of hIFN γ (15 ng/mL) by modified kynurenine bioassay, optical density at 490 nm, untreated WISH cells of 0.377 OD 490 nm; a lowering of the biological activity (hIFN γ signal, kynurenine bioassay) in WISH cells cultured with NaClO3 against untreated cells of 86%.
